Assay: Phase 1 safety and tolerability of single IV infusion of kappamab (adverse events, laboratory, ECG)
[1] = All treatment-emergent AEs, Grade 1-3, 0.3 mg/kg (N = 3)
[2] = All treatment-emergent AEs, Grade 1-3, 1.0 mg/kg (N = 3)
[3] = All treatment-emergent AEs, Grade 1-3, 3.0 mg/kg (N = 3)
[4] = All treatment-emergent AEs, Grade 1-3, 10 mg/kg (N = 3)
[5] = All treatment-emergent AEs, Grade 1-3, Overall (N = 12)
[6] = All treatment-emergent AEs, Grade 4/5, 0.3 mg/kg (N = 3)
[7] = All treatment-emergent AEs, Grade 4/5, 1.0 mg/kg (N = 3)
[8] = All treatment-emergent AEs, Grade 4/5, 3.0 mg/kg (N = 3)
[9] = All treatment-emergent AEs, Grade 4/5, 10 mg/kg (N = 3)
[10] = All treatment-emergent AEs, Grade 4/5, Overall (N = 12)
[11] = All treatment-emergent AEs, Total, 0.3 mg/kg (N = 3)
[12] = All treatment-emergent AEs, Total, 1.0 mg/kg (N = 3)
[13] = All treatment-emergent AEs, Total, 3.0 mg/kg (N = 3)
[14] = All treatment-emergent AEs, Total, 10 mg/kg (N = 3)
[15] = All treatment-emergent AEs, Total, Overall (N = 12)
[16] = Possibly, probably, or definitely related AEs, Grade 1-3, 0.3 mg/kg (N = 3)
[17] = Possibly, probably, or definitely related AEs, Grade 1-3, 1.0 mg/kg (N = 3)
[18] = Possibly, probably, or definitely related AEs, Grade 1-3, 3.0 mg/kg (N = 3)
[19] = Possibly, probably, or definitely related AEs, Grade 1-3, 10 mg/kg (N = 3)
[20] = Possibly, probably, or definitely related AEs, Grade 1-3, Overall (N = 12)
[21] = Possibly, probably, or definitely related AEs, Grade 4/5, 0.3 mg/kg (N = 3)
[22] = Possibly, probably, or definitely related AEs, Grade 4/5, 1.0 mg/kg (N = 3)
[23] = Possibly, probably, or definitely related AEs, Grade 4/5, 3.0 mg/kg (N = 3)
[24] = Possibly, probably, or definitely related AEs, Grade 4/5, 10 mg/kg (N = 3)
[25] = Possibly, probably, or definitely related AEs, Grade 4/5, Overall (N = 12)
[26] = Possibly, probably, or definitely related AEs, Total, 0.3 mg/kg (N = 3)
[27] = Possibly, probably, or definitely related AEs, Total, 1.0 mg/kg (N = 3)
[28] = Possibly, probably, or definitely related AEs, Total, 3.0 mg/kg (N = 3)
[29] = Possibly, probably, or definitely related AEs, Total, 10 mg/kg (N = 3)
[30] = Possibly, probably, or definitely related AEs, Total, Overall (N = 12)
[31] = Related AEs by System Organ Class, Overall total, 0.3 mg/kg (N = 3)
[32] = Related AEs by System Organ Class, Overall total, 1.0 mg/kg (N = 3)
[33] = Related AEs by System Organ Class, Overall total, 3.0 mg/kg (N = 3)
[34] = Related AEs by System Organ Class, Overall total, 10 mg/kg (N = 3)
[35] = Related AEs by System Organ Class, Overall total, Overall (N = 12)
[36] = Related AEs: Dyspnea, 10 mg/kg (N = 3)
[37] = Related AEs: Dyspnea, Overall (N = 12)
[38] = Related AEs: Eructation, 10 mg/kg (N = 3)
[39] = Related AEs: Eructation, Overall (N = 12)
[40] = Related AEs: Flushing, 10 mg/kg (N = 3)
[41] = Related AEs: Flushing, Overall (N = 12)
[42] = Related AEs: Gastrointestinal disorders, Total, 10 mg/kg (N = 3)
[43] = Related AEs: Gastrointestinal disorders, Total, Overall (N = 12)
[44] = Related AEs: Musculoskeletal and connective tissue disorders, Total, 10 mg/kg (N = 3)
[45] = Related AEs: Musculoskeletal and connective tissue disorders, Total, Overall (N = 12)
[46] = Related AEs: Nausea, 10 mg/kg (N = 3)
[47] = Related AEs: Nausea, Overall (N = 12)
[48] = Related AEs: Pain in extremity, 10 mg/kg (N = 3)
[49] = Related AEs: Pain in extremity, Overall (N = 12)
[50] = Related AEs: Respiratory, thoracic & mediastinal disorders, Total, 10 mg/kg (N = 3)
[51] = Related AEs: Respiratory, thoracic & mediastinal disorders, Total, Overall (N = 12)
[52] = Related AEs: Vascular disorders, Total, 10 mg/kg (N = 3)
[53] = Related AEs: Vascular disorders, Total, Overall (N = 12)

Experimental: Patients on maintenance therapy (thalidomide or lenalidomide) were also eligible for inclusion. Patients were excluded from the study if their serum κFLC was greater than 250 mg/L.
The pharmacodynamics of serum κFLC was also assessed. Drug-target modulation of cell signalling pathways was determined by measuring pro-inflammatory and anti-inflammatory cytokines, chemokines, and growth factors in patient serum at specific time intervals.
After providing HREC-approved consent, patients were screened and assessed for study eligibility.
Within each dose cohort only 1 patient per week was to be treated. […] Premedication was not mandated, however, paracetamol (acetaminophen), corticosteroids, and antihistamines were allowed for the treatment of infusion reactions.
Evaluation of safety and tolerability during treatment included vital signs, physical examination, electrocardiogram (ECG), haematology assessments, clinical chemistry, C-reactive protein, β2-microglobulin, immunoglobulin quantification, urinalysis, creatinine clearance, collection of adverse events (AEs), and drug-induced toxicity. All AEs were graded using the Cancer Therapy Evaluation Program Common Terminology Criteria for Adverse Events, version 3.0.

## kappamab: humanized form of K121 anti-KMA antibody; VH SEQ ID NO: 1, VL SEQ ID NO: 2
0.3-10 mg/kg
  DLT or discontinuation due to an AE: no patients who experienced a DLT or discontinued the study due to an AE
2/12 patients
  Patients with nausea (most frequently reported AE): 17%
2/12 patients, at the highest dose level (10 mg/kg)
  Patients who experienced study drug-related AEs: 17%
17/18 events
  AEs that were grade 1 or 2: 94%
[1]
  Number of patients with AEs (%): 2 (66%)
  number of AEs: 4
[2]
  Number of patients with AEs (%): 3 (100%)
  number of AEs: 3
[3]
  Number of patients with AEs (%): 1 (33%)
  number of AEs: 2
[4]
  Number of patients with AEs (%): 2 (67%)
  number of AEs: 9
[5]
  Number of patients with AEs (%): 8 (67%)
  number of AEs: 18
[6]
  Number of patients with AEs (%): 0 (0%)
  number of AEs: 0
[7]
  Number of patients with AEs (%): 0 (0%)
  number of AEs: 0
[8]
  Number of patients with AEs (%): 0 (0%)
  number of AEs: 0
[9]
  Number of patients with AEs (%): 0 (0%)
  number of AEs: 0
[10]
  Number of patients with AEs (%): 0 (0%)
  number of AEs: 0
[11]
  Number of patients with AEs (%): 2 (67%)
  number of AEs: 4
[12]
  Number of patients with AEs (%): 3 (100%)
  number of AEs: 3
[13]
  Number of patients with AEs (%): 1 (33%)
  number of AEs: 2
[14]
  Number of patients with AEs (%): 2 (67%)
  number of AEs: 9
[15]
  Number of patients with AEs (%): 8 (67%)
  number of AEs: 18
Eight of the 12 patients, all doses
  Patients who experienced treatment-emergent AEs: 67%
[16]
  Number of patients with AEs (%): 0 (0%)
  number of AEs: 0
[17]
  Number of patients with AEs (%): 0 (0%)
  number of AEs: 0
[18]
  Number of patients with AEs (%): 0 (0%)
  number of AEs: 0
[19]
  Number of patients with AEs (%): 2 (67%)
  number of AEs: 6
[20]
  Number of patients with AEs (%): 2 (17%)
  number of AEs: 6
[21]
  Number of patients with AEs (%): 0 (0%)
  number of AEs: 0
[22]
  Number of patients with AEs (%): 0 (0%)
  number of AEs: 0
[23]
  Number of patients with AEs (%): 0 (0%)
  number of AEs: 0
[24]
  Number of patients with AEs (%): 0 (0%)
  number of AEs: 0
[25]
  Number of patients with AEs (%): 0 (0%)
  number of AEs: 0
[26]
  Number of patients with AEs (%): 0 (0%)
  number of AEs: 0
[27]
  Number of patients with AEs (%): 0 (0%)
  number of AEs: 0
[28]
  Number of patients with AEs (%): 0 (0%)
  number of AEs: 0
[29]
  Number of patients with AEs (%): 2 (67%)
  number of AEs: 6
[30]
  Number of patients with AEs (%): 2 (17%)
  number of AEs: 6
[31]
  Number of patients with AEs (%): 0[0]
  number of AEs: 0[0]
[32]
  Number of patients with AEs (%): 0[0]
  number of AEs: 0[0]
[33]
  Number of patients with AEs (%): 0[0]
  number of AEs: 0[0]
[34]
  Number of patients with AEs (%): 2 (67%)
  number of AEs: 6
[35]
  Number of patients with AEs (%): 2 (17%)
  number of AEs: 6
[36]
  Number of patients with AEs (%): 1(33%)
  number of AEs: 1
[37]
  Number of patients with AEs (%): 1 (8.3%)
  number of AEs: 1
[38]
  Number of patients with AEs (%): 1 (33%)
  number of AEs: 1
[39]
  Number of patients with AEs (%): 1 (8.3%)
  number of AEs: 1
[40]
  Number of patients with AEs (%): 1 (33%)
  number of AEs: 1
[41]
  Number of patients with AEs (%): 1 (8.3%)
  number of AEs: 1
[42]
  Number of patients with AEs (%): 2 (67%)
  number of AEs: 3
[43]
  Number of patients with AEs (%): 2 (17%)
  number of AEs: 3
[44]
  Number of patients with AEs (%): 1 (33%)
  number of AEs: 1
[45]
  Number of patients with AEs (%): 1 (8.3%)
  number of AEs: 1
[46]
  Number of patients with AEs (%): 2 (67%)
  number of AEs: 2
[47]
  Number of patients with AEs (%): 2 (8.3%)
  number of AEs: 2
[48]
  Number of patients with AEs (%): 1 (33%)
  number of AEs: 1
[49]
  Number of patients with AEs (%): 1 (8.3%)
  number of AEs: 1
[50]
  Number of patients with AEs (%): 1 (33%)
  number of AEs: 1
[51]
  Number of patients with AEs (%): 1 (8.3%)
  number of AEs: 1
[52]
  Number of patients with AEs (%): 1 (33%)
  number of AEs: 1
[53]
  Number of patients with AEs (%): 1 (8.3%)
  number of AEs: 1
After infusion was stopped, without treatment
  Time to resolution of infusion reaction symptoms: ≤ 30 min
Any patient
  Immune complex formation or serum sickness: no evidence of immune complex formation or serum sickness
During the study
  Deaths or other serious AEs: no deaths or other serious AEs
  Serum immunoglobulin levels, clinical chemistry, haematology, urinalysis: no dose-related trends
In vivo
  ECG QTc intervals: no prolongation of QTc intervals
  ECOG performance status scores: no effect
  Lactate dehydrogenase levels or vital signs: No changes from baseline
  Serum C-reactive protein levels: no apparent dose-related trend
One patient, 10 mg/kg, flushing, dyspnea, nausea after start of infusion
  Infusion reaction: grade 1 infusion reaction
Patients treated up to 10 mg/kg
  Maximum tolerated dose: No maximum tolerated dose of kappamab was defined
Serum blood urea nitrogen, serum creatinine, creatinine clearance
  Kidney function: no drug-related effects on kidney function

Reference: patent publication US20220031840A1, “Method of Treatment” (HaemaLogix Pty Ltd, priority 2018, published 2022)
